Laboratory results taken from the supplement of paper PMC10567573.

B1: TRIM9 (parent)
chain: PRNSCITCPQCHRSLILDDRGLRG

Variants of: B1
Experiment: protein stability index of a GFP-peptide fusion (GPS, HEK-293T) (PSI 1-6); higher = more stable
Conditions: c terminus: a fixed tail appended
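Also: lentivirally expressed fusions sorted by FACS into six bins by GFP to DsRed ratio, PSI derived from sequencing read proportions per bin multiplied by bin number.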

Compared with PRNSCITNPQCHRSLILDDRGLRG [C8N], PRNSCITCPQCHRSNILDDRGLRG [L15N] is lower in protein stability index: 2.6 for the first, 1.98 for the second.

Compared with PRNSCITCPQCHRSLICDDRGLRG [L17C], PENSCITCPQCHRSLILDDRGLRG [R2E] is higher in protein stability index: 2.51 for the first, 2.71 for the second.

Compared with PRNSCITCPQCHRSLILDDRLLRG [G21L], PYNSCITCPQCHRSLILDDRGLRG [R2Y] is higher in protein stability index: 2.09 for the first, 3.02 for the second.

Compared with PRNSCITCPQCHRSLILDNRGLRG [D19N], PRNSCITCPQCHRSLILDDRGLTG [R23T] is higher in protein stability index: 1.93 for the first, 3 for the second.

Compared with PRNSCITCPQCHRSLILDDRGLCG [R23C], PRNSCITLPQCHRSLILDDRGLRG [C8L] is lower in protein stability index: 2.6 for the first, 2.35 for the second.

Compared with PRNSCITCNQCHRSLILDDRGLRG [P9N], PRNSCITCPQCHRSLILDDRGLRH [G24H] is higher in protein stability index: 1.54 for the first, 3.02 for the second.

Compared with PRNSCITCPQCHRSLILDDQGLRG [R20Q], GRNSCITCPQCHRSLILDDRGLRG [P1G] is lower in protein stability index: 2.04 for the first, 1.71 for the second.

Compared with PRNSCITCPQCHRSLILDDRGLWG [R23W], PRNSCITCPQCHRSLILFDRGLRG [D18F] is higher in protein stability index: 1.25 for the first, 1.92 for the second.

First: PRNSCITCPQCHRSLILDDRGLAG [R23A]
Second: PRNSCITCPQDHRSLILDDRGLRG [C11D]
The protein stability index of the first is lower: 2.5 for the first, 2.92 for the second.

First: PRNSCIVCPQCHRSLILDDRGLRG [T7V]
Second: PRNSCITCPQCHRSLILDDRGLFG [R23F]
The protein stability index of the first is higher: 3.1 for the first, 2.75 for the second.

First: PRNSCFTCPQCHRSLILDDRGLRG [I6F]
Second: PRNSCITCPCCHRSLILDDRGLRG [Q10C]
The protein stability index of the first is lower: 1.66 for the first, 1.95 for the second.

Compared with PRNSCITCPQCHRSLIADDRGLRG [L17A], DRNSCITCPQCHRSLILDDRGLRG [P1D] is higher in protein stability index: 1.72 for the first, 2.4 for the second.

Going from PRNACITCPQCHRSLILDDRGLRG [S4A] to PRNSCIACPQCHRSLILDDRGLRG [T7A], the protein stability index rises from 2 to 2.42.

First: PRNSCITCPQCHRSWILDDRGLRG [L15W]
Second: PRMSCITCPQCHRSLILDDRGLRG [N3M]
The protein stability index of the first is higher: 2.48 for the first, 1.6 for the second.

Compared with PRNSCITCPQCHRSLILDKRGLRG [D19K], PRNSCITCPQCHRKLILDDRGLRG [S14K] is higher in protein stability index: 2.05 for the first, 2.7 for the second.

Going from PRNSCITCPQCHRSLIIDDRGLRG [L17I] to PRNSCITCPQCHRSLILDDDGLRG [R20D], the protein stability index rises from 2.05 to 2.53.

Compared with PRNSCITCPQCHRSLILDMRGLRG [D19M], PRNSCITCPQCHRSLILDWRGLRG [D19W] is lower in protein stability index: 2.24 for the first, 1.52 for the second.

First: PRNSCITCPQCHRHLILDDRGLRG [S14H]
Second: PRNSCITCPQMHRSLILDDRGLRG [C11M]
The protein stability index of the first is higher: 2.25 for the first, 1.97 for the second.

Compared with PRNSCITCPQCHRSLILDDRGLRQ [G24Q], PRNSCMTCPQCHRSLILDDRGLRG [I6M] is lower in protein stability index: 2.28 for the first, 2.08 for the second.

Going from PRNSCITCPQGHRSLILDDRGLRG [C11G] to PRNSCITCPQCHRMLILDDRGLRG [S14M], the protein stability index falls from 3.01 to 2.27.

Going from CRNSCITCPQCHRSLILDDRGLRG [P1C] to PRNSCITCPQCHDSLILDDRGLRG [R13D], the protein stability index rises from 2.61 to 3.33.

First: PRNSCITCPQCHRSLILDDRGLRC [G24C]
Second: PRNSCITCPQCHRSLNLDDRGLRG [I16N]
The protein stability index of the first is lower: 2.35 for the first, 2.49 for the second.

Going from PRNSCITCPQCHRSLILDDRSLRG [G21S] to PRNFCITCPQCHRSLILDDRGLRG [S4F], the protein stability index rises from 1.71 to 2.31.

In the case of PRNSCITCPQCHRSLILDDRGLVG [R23V], the protein stability index is reported as 1.93.
